These results are taken from PMC8864705 (Chemical Science, 2022).

Positions count from the first letter of the chain named. Names may count otherwise.

Experiment [1] addresses T1, 4.1G-CTD triple mutation I958D/V959D/I960D (human, UniProt O43491 939-1005, I958D | V959D | I960D).
T1 sequence (looked up): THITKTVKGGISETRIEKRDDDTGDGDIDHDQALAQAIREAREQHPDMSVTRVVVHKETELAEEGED
Briefly: ITC. In general terms: Isothermal titration calorimetry measures the heat released or taken up as one component is titrated into another.

Experiment [2] concerns the target T2, C-terminal domain of protein 4.1G (4.1G-CTD, aa 939–1005) (human, UniProt O43491 939-1005).
T2 sequence (looked up): T1 sequence (looked up) with D20I, D21V, D22I
Description: ITC.

B1: NuMA 1800–1825 (26-residue motif at the C-terminal region of nuclear mitotic apparatus protein) (domain or fragment, human, UniProt Q14980 1800-1825, looked up)
chain: SGRKTRSARRRTTQIINITMTKKLDV
For B1, the Kd (in general, a measure of binding affinity in units of concentration) in experiment [1] was found to be 333 ± 73 µM.

B2: NuMA 1800–1825 mutant D1824A (domain or fragment, human, UniProt Q14980 1800-1825, looked up)
chain: SGRKTRSARRRTTQIINITMTKKLAV
For B2, in experiment [2], the binding result is given as “binds”.
